# Data as given in US12065466B2, “Methods and compositions for protein sequencing” (Quantum-Si Incorporated, priority 2020, dated 2024).
# Where two headings read alike, the source gives them in different places.
# B1: H. sapiens Fyn SH2 domain triple mutant superbinder: SEQ ID NO: 117 (protein, listed as Homo sapiens)
# chain: MGAMDSIQAEEWYFGKLGRKDAERQLLSFGNPRGTFLIRESETVKGAYALSIRDWDDMKGDHVKHYLIRKLDNGGYYITTRAQFETLQQLVQHYSERAAGLSSRLVVPSHK
# B2: PS705 (protein)
# chain: MSDSPVDLKPKPKVKPKLERPKLYKVMLLNDDYTPMSFVTVVLKAVFRMSEDTGRRVMMTAHRFGSAVVVVCERDIAETKAKEATDLGKEAGFPLMFTTEPEEHHHHHHHHHHGGGSGGGSGGGSGLNDFFEAQKIEWHEGGGSGGGSGGGSGLNDFFEAQKIEWHEGSAGSAAGSGEFMDKDCEMKRTTLDSPLGKLELSGCEQGLHEIKLLGKGTSAADAVEVPAPAAVLGGPEPLMQATAWLNAYFHQPEAIEEFPVPALHHPVFQQESFTRQVLWKLLKVVKFGEVISYQQLAALAGNPAATAAVKTALSGNPVPILIPCHRVVSSSGAVGGYEGGLAVKEWLLAHEGHRLGKPGLG
# B3: teClpS: ClpS protein, SEQ ID NO: 107 (protein, listed as Thermosynechococcus elongatus)
# chain: MPQERQQVTRKHYPNYKVIVLNDDFNTFQHVAACLMKYIPNMTSDRAWELTNQVHYEGQAIVWVGPQEQAELYHEQLLRAGLTMAPLEPE
# B4: PS372: ClpS homolog binding leucine, isoleucine and valine, SEQ ID NO: 5 (protein)
# chain: MAFPARGKTAPKNEVRRQPPYNVILLNDDDHTYRYVIEMLQKIFGFPPEKGFQIAEEVDRTGRVILLTTSKEHAELKQDQVHSYGPDPYLGRPCSGSMTCVIEPAV
# B5: dye-labeled PS372: PEGylated, biotinylated PS372 conjugated 1:1 with streptavidin and a biotinylated Cy3B-labeled oligonucleotide (conjugate)
# chain: MAFPARGKTAPKNEVRRQPPYNVILLNDDDHTYRYVIEMLQKIFGFPPEKGFQIAEEVDRTGRVILLTTSKEHAELKQDQVHSYGPDPYLGRPCSGSMTCVIEPAV
# B6: atClpS1: Agrobacterium tumifaciens ClpS1, SEQ ID NO: 93 (protein, listed as Agrobacterium tumifaciens)
# chain: MIAEPICMQGEGDGEDGGTNRGTSVITRVKPKTKRPNLYRVLLLNDDYTPMEFVIHILERFFQKDREAATRIMLHVHQHGVGECGVFTYEVAETKVSQVMDFARQHQHPLQCVMEKK
# What was measured:
# [1] = test system: amino acid at a terminal position of a polypeptide; details: Table 2; amino acid identity at a terminal position (phosphotyrosine also internal); inferred from literature and/or demonstrated by the inventors; cited from earlier work
# [2] = biological target: T1, fluorescently-labeled peptide containing N-terminal phospho-tyrosine (Homo sapiens, UniProt P06241, C239S/C240S/C246S/K204L/S186A/T181V); assay: Single-molecule recognition of modified amino acids by immobilized Fyn SH2 variant; assay type: binding
# T1 construct: Src Homology 2 (SH2) domain from Fyn
# Protocol: Experiments were performed to evaluate recognition of amino acids containing specific post-translation modifications. […] The variant protein was immobilized to the bottom of sample wells, and single-molecule signal traces were collected upon addition of a fluorescently-labeled peptide containing N-terminal phospho-tyrosine. […] Pulse duration data collected during these experiments is shown in FIG. 22B (top, middle, and bottom plots corresponding to the top, middle, and bottom traces of FIG. 22A, respectively). Pulse duration and interpulse duration statistics are shown in FIG. 22C (top and bottom panels, respectively). Control experiments were performed to confirm that the Fyn protein was specific for the phosphorylated tyrosine. The experiments were repeated for each of three different peptides: a first peptide containing N-terminal unmodified tyrosine (Y; FIG. 22D), a second peptide containing N-terminal and penultimate unmodified tyrosines (YY; FIG. 22E), and a third peptide containing N-terminal phospho-serine (FIG. 22F).
# [3] = test system: labeled N-terminal FA peptide; assay: Stopped-flow dissociation rate (koff), atClpS2-V1 derivatives; assay type: binding; details: excess unlabeled trap peptide
# Source text: To measure the dissociation rate (koff) by stopped-flow, complexes of binder bound to labeled peptide substrate at an optimal concentration were rapidly mixed with excess unlabeled trap peptide. […] The averaged raw traces were fitted with an exponential equation to determine the koff (FIG. 37B, bottom panel).
# [4] = test system: LF, LA, IR, IA, VR, and VA peptides; assay: Binder-on-chip single-molecule assay (PS372); assay type: binding
# Protocol: Binder-on-chip experiments were performed for PS372 with LF, LA, IR, IA, VR, and VA peptides to evaluate recognition by signal pulse detection in single-molecule assays. […] For comparison, the mean pulse width observed with the L-binder teClpS was 768 ms (˜37% shorter than PS372).
# [5] = test system: immobilized peptides containing an N-terminal amino acid of interest (XAKLDEESILKQK; XXKLDEESILKQK); assay: Biolayer interferometry screening of ClpS homologs; assay type: binding; details: for binding to isoleucine peptides, effect of penultimate amino acid: IR, IQ, IA peptides; for binding to valine peptides, effect of penultimate amino acid: VA, VR peptides
# Protocol: The amino acid binding profile of each new homolog was evaluated by biolayer interferometry. ClpS proteins with known binding profiles (atClpS2-V1, atClpS1, and teClpS) were included as controls. In these assays, peptides containing an N-terminal amino acid of interest were immobilized on a biolayer interferometry sensor surface, allowed to bind to ClpS protein, and incubated in buffer to allow the ClpS molecules to dissociate. The binding response (nm) and dissociation off-rate (kdis, s^−1) were measured using a kinetic model. Measurements with each ClpS protein were carried out at 30° C. for the amino acids I, V, M, F. Y, and W, along with D, E, A, and R as negative controls. All peptides contained a penultimate alanine (A) and consisted of the sequence XAKLDEESILKQK (SEQ ID NO: 238).
# Results from the biolayer interferometry screening of 61 ClpS homologs (58 new homologs, 3 reference homologs) are shown in FIG. 29B. Response (y-axis) is plotted against the inverse of dissociation rate for eight different dipeptides (data not shown for negative controls DA, AA, and RA). In these plots, higher values on the y-axis correspond to stronger association response and higher values on the x-axis indicate slower dissociation rates.
# The effect of penultimate amino acids on isoleucine and valine binding by PS372 were evaluated by measuring binding to peptides with N-terminal IR, IQ, and VR by biolayer interferometry (peptide sequence: XXKLDEESILKQK (SEQ ID NO: 291)). Measurements were also obtained with teClpS for comparison.
# [6] = test system: N-terminal amino acids of peptides; assay: Single-molecule terminal amino acid recognition by labeled recognition molecule (dwell time analysis); assay type: binding
# Protocol: An adaptor protein involved in proteolytic pathways was identified as a potential candidate for use as a labeled recognition molecule for detecting N-terminal aromatic residues. The adaptor protein, ClpS2 from an α-proteobacterium (A. tumefaciens), was expressed and labeled at an exposed cysteine residue. […] The exposed cysteine residue was labeled with a rhodamine dye (ATTO 532).
# Peptides having different N-terminal aromatic residues were prepared to test whether the labeled ClpS2 was capable of N-terminal amino acid discrimination at the single molecule level.
# FIG. 19C is a plot showing discriminant pulse durations (time duration of signal peaks) among the three N-terminal residues when reversibly bound by labeled ClpS2. FIG. 19D is a plot showing discriminant interpulse durations (time duration between signal pulses) among the three N-terminal residues. […] Mean pulse duration for the different N-terminal residues is visualized by histograms (A)-(B) and layered histogram (C).
# [7] = test system: amino acid at a terminal position of a polypeptide; assay: Amino acid binding preference of recognition proteins (Tables 1 and 2); details: Table 1, ClpS proteins; amino acid identity at a terminal position of a polypeptide; inferred from literature and/or demonstrated by the inventors
# Source text: It should be appreciated that these sequences and other examples described herein are meant to be non-limiting, and recognition molecules in accordance with the application can include any homologs, variants thereof, or fragments thereof minimally containing domains or subdomains responsible for peptide recognition.
# [8] = test system: FITC-labeled peptide (XAKLDEESILKQK-FITC (SEQ ID NO: 238)); assay: Fluorescence polarization of ClpS:streptavidin complexes; assay type: binding; details: 30 minute incubation at 23° C.
# Protocol: ClpS homologs were evaluated by fluorescence polarization to measure the interaction of a FITC-labeled peptide (XAKLDEESILKQK-FITC (SEQ ID NO: 238)) with ClpS:streptavidin complexes. Measurements of polarization response (millipolarization, mP) and total intensity for I, V, L, F, Y, and W were performed in a high-throughput 384-well plate format, using 480 nm excitation and 530 nm emission wavelength with readings collected after 30 minute incubation at 23° C. The results with in-solution binding validated that PS372 binds with leucine, isoleucine, and valine with strength of response in the order LA>IA>VA (FIG. 29E). Binding responses of atClpS2-V1 were FA>YA>WA, and those of teClpS were LA>FA>YA>WA.
# [9] = test system: peptides with different N-terminal amino acids, penultimate alanine; assay: Biolayer interferometry of multivalent amino acid binders; assay type: binding
# Protocol: The amino acid binding profile of each Bis-atClpS2-V1 binder (PS609, PS610, and PS611) was evaluated by biolayer interferometry as described above. The monovalent atClpS2-V1 was run as a control. Measurements with each binder were carried out for the amino acids F, Y, and W, along with I, L, M, and V as negative controls. All peptides contained a penultimate alanine (A). Response curves for the tandem binders PS609, PS610, and PS611 are shown in FIGS. 35B, 35C, and 35D, respectively.
# The multivalent binder PS612 is a polypeptide that contains tandem copies of two different ClpS protein monomers (atClpS2-V1 and PS372). The amino acid binding profile of PS612 was evaluated by biolayer interferometry as described above. The monovalent binders atClpS2-V1 and PS372 were separately run as controls.
# The multivalent binder PS614 is a polypeptide that contains two copies of the ClpS binder PS372 oriented in tandem. The amino acid binding profile of PS614 was evaluated by biolayer interferometry as described above.
# The multivalent binders PS637, PS638, and PS639 are polypeptides that each contain two copies of the ClpS binder PS557 oriented in tandem and separated by Linker 1, Linker 2, and Linker 3, respectively. The amino acid binding profiles of each binder was evaluated by biolayer interferometry as described above.
# [10] = test system: N-terminal isoleucine peptide and N-terminal leucine peptide; assay: Peptide-on-chip recognition assay with labeled PS372; assay type: binding
# [11] = test system: immobilized peptide containing N-terminal phenylalanine (FYPLPWPDDDY (SEQ ID NO: 235)); assay: Simultaneous single-molecule recognition with differentially labeled recognition molecules; assay type: binding; details: 500 nM each binder
# Protocol: Single peptide molecules containing N-terminal phenylalanine ([…] (SEQ ID NO: 235)) were immobilized in sample wells of a chip. Buffer containing 500 nM each of atClpS1 (Agrobacterium tumifaciens ClpS1; sequence provided in Table 1) and atClpS2-V1 (Agrobacterium tumifaciens ClpS2 variant 1; sequence provided in Table 1) was added, where atClpS1 and atClpS2-V1 were labeled with Cy3 and Cy3B, respectively. Since the intensity of Cy3B is higher than Cy3, atClpS2-V1 binding events were readily distinguishable from atClpS1 binding events.
# The pulse duration distributions were distinct for each binder (FIG. 24B) and corresponded to their kinetic profiles as observed in single-binder experiments. Mean pulse duration was 1.3 seconds for atClpS1 and 1.0 seconds for atClpS2-V1 (FIG. 24C). Pulse rate was also distinct: 8.1 pulses/min for atClpS1 and 14.1 pulses/min for atClp2-V1 (FIG. 24C).
molecule,measurement,setting,value
B1,Binding Pref.,[1],phospho-Y
same,peptide binding (single-molecule signal traces),"[2]; negative controls: N-terminal unmodified tyrosine (Y), YY, N-terminal phospho-serine",binding was not detected
same,peptide binding (single-molecule signal traces),[2]; peptide containing N-terminal phospho-tyrosine,Peptide binding by the immobilized protein was detected
B2,FA koff,[3],1.2655 s⁻¹
B3,mean pulse width,"[4]; L-binder comparison, peptide not stated",768 ms
same,"binding to isoleucine peptides, effect of penultimate amino acid",[5],minor response with very fast dissociation for IR peptide only
same,"binding to valine peptides, effect of penultimate amino acid",[5],no response with V peptides
same,mean pulse duration,[6]; terminal leucine residue,0.71 s
same,Binding Pref.,[7],"F, W, Y, L"
same,order of strength of polarization response,[8],LA>FA>YA>WA
B4,mean pulse width,[4]; IA peptide,70 ms
same,mean pulse width,[4]; IR peptide,83 ms
same,mean pulse width,[4]; LA peptide,876 ms
same,mean pulse width,[4]; LF peptide,1207 ms
same,amino acids bound (biolayer interferometry),"[5]; 30° C., penultimate alanine","binder of leucine, isoleucine, and valine"
same,"binding to the F, Y, or W peptides","[5]; 30° C., penultimate alanine",did not show binding
same,"binding to isoleucine peptides, effect of penultimate amino acid",[5],binds IQ and IA with higher affinity relative to IR
same,"binding to valine peptides, effect of penultimate amino acid",[5],binds well with VA and has negligible response with VR
same,Binding Pref.,[7],"L, I, V"
same,N-terminal amino acids bound (biolayer interferometry),[9],"binds N-terminal I, L, and V"
same,order of strength of polarization response,[8],LA>IA>VA
B5,mean pulse width,[10]; N-terminal isoleucine peptide (IAALAAVAADDDW (SEQ ID NO: 239)),78 ms
same,mean pulse width,[10]; N-terminal leucine peptide (LAAIAAFAADDDW (SEQ ID NO: 292)),957 ms
B6,Pulse rate,[11],8.1 pulses/min
same,mean pulse duration,[11],1.3 s
same,recognition of terminal amino acids (dwell time analysis),[6],"differentiable recognition of phenylalanine, leucine, tryptophan, and tyrosine"
same,Binding Pref.,[7],"F, W, Y, L"
